# ± gives the uncertainty stated by the source.
# Experiment: amyloid nucleation score (Sup35N fusion, yeast selection) (log enrichment); library NNK2; higher = more nucleation; inactive = no reads after selection
# Outline: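 Peptides of 20 random codons fused to Sup35N were expressed in psi-negative yeast, induced 24 hours with 100 μM copper sulfate, then grown 7 days at 30°C on medium lacking adenine and uracil. Input and output plasmid inserts were Illumina-sequenced. Nucleation score is the DiMSum log enrichment of output over input reads, centred on the mode score of non-aggregating sequences, excluding sequences with under 100 input reads. Random libraries had three technical output replicates.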
row,Substance,amyloid nucleation score
1,RRGSSTIGADKESQVSLQN,-0.724 ± 1
2,MMARFCVAFQHVIESNLGGS,-1.4 ± 0.44
3,HSVLMAGSPTILRHRYRFKG,-0.723 ± 0.44
4,TCGDGPATYTQT,0.132 ± 0.38
5,YWWGLENFTYCEDDAVSHKS,0.294 ± 0.8
6,RAQYPFDSLSRGSGPVMWLS,1 ± 0.57
7,ELDWKASTIGKMNHIRLERR,0.145 ± 0.23
8,RIWSFNGQTFVSNLSVSSVS,-0.773 ± 0.76
9,VPFYVFSVIGMIYMHGWVEW,-0.748 ± 0.56
10,LIYVDFHGIQVVCLYLCVHC,inactive
11,FIILYGSGMRLNFQGI,0.968 ± 0.23
12,KSCGLLAYDT,inactive
13,CNGYRKVHCLMTMSRWTYGR,1.08 ± 0.1
14,FSLCSLAEVAKKVTTLRRDG,-0.277 ± 1.1
15,LCTRHACNIYGPLPNAHLVR,0.643 ± 0.31
16,VFDGVSSGTCHLCAAWSWDG,1.56 ± 0.14
17,TMILVCRRAFKCYLTQDWSD,0.538 ± 0.3
18,GSPNLVSV,0.401 ± 0.56
19,SAFVVQFVK,-0.31 ± 0.42
20,SELIGFLGGNQIELA,0.027 ± 0.34
21,DMQGYFCSLTLMFMFRPRIM,inactive
22,TWGYGRDVCVRSERSGWYLS,0.859 ± 0.28
23,ATYFWMQSVP,0.903 ± 0.74
24,MLDMVIYCISLYCSYTLRMR,1.42 ± 0.58
25,FGLDLVFISFQARKCFVVMD,inactive

row,Substance,amyloid nucleation score
1,HRVRIINCKKIWGNALWVRL,1.15 ± 0.14
2,VMCEEGLALRRCTGWLMFTG,1.11 ± 0.28
3,FMGRMLVIHL,0.277 ± 0.41
4,NWLLN,-0.492 ± 0.76
5,CADAITRHAGTFVAGWSW,0.865 ± 0.17
6,SQLFTVLSKS,-0.062 ± 0.35
7,LTMCICWLTQCMT,6.283 ± 0.056
8,RENVVSGHDRNECAGLMSRG,0.343 ± 0.27
9,YRASHCQSFQ,-1.2 ± 1.1
10,MFSFCRGSANSRLAQKDIVN,0.023 ± 0.3
11,YRAMESNRKRTPVKPVRCVV,2.85 ± 0.11
12,VRKSFLCCKQMGLLF,-1.14 ± 0.64
13,NLNFDPGVLF,inactive
14,GKLAARTAINSLFCKLGRRP,-0.066 ± 0.63
15,ALNAG,1.11 ± 0.2
16,GGNFYGGEYDMGGGSIRHYG,inactive
17,TYTMGRHNFVMSLSFFSHSA,4.861 ± 0.044
18,FCTKSTGNMCFTIMKLRG,0.097 ± 0.79
19,RMSWVGSEHRLGVNSFNVLG,0.201 ± 0.34
20,LVSADVCLGLMPSKSLGGRV,1.07 ± 0.54
21,VNSFIDDSCLGMANPLPYWS,-1.03 ± 1
22,MRWLYFPLF,-0.801 ± 0.56
23,PLDLYSVSIISLFEYIGVVR,-0.948 ± 1
24,KTYEMTDQVIRKPYPL,0.347 ± 0.25
25,ADDFINVNDTNKTVLCMCCG,-0.61 ± 0.78

row,Substance,amyloid nucleation score
1,SIEYRDLKVCSLLYPVPQSG,0.127 ± 0.46
2,ALHFPVIQHFW,5.22 ± 0.073
3,STLVIVCFYICRHFSTYRVR,-0.832 ± 0.32
4,RYLVLVLLGHINCARYYTLN,-0.114 ± 1.1
5,MFCIWRE,0.907 ± 0.2
6,YLRYLWSRQPCSAGSQVACR,-0.145 ± 1.1
7,NVKNKKSVSLPYSKLMRGRE,-0.17 ± 0.65
8,PRLGWHVLLVQIAVG,2.94 ± 0.085
9,NLCDYSSSRLIASRNMHYTA,4 ± 0.07
10,VHYQLKSIRMDSM,0.484 ± 0.19
11,DSLKFSLRLVHLPLPIYGCC,1.5 ± 0.43
12,IWLVQGTAFPGMLSGQGWLL,0.147 ± 0.76
13,APENGFRFWLVNHNAVHMIL,-0.21 ± 0.79
14,CSSRNILDWKFVFFVCYFT,3.41 ± 0.12
15,NMYSCQYVCGTALDDDWVGC,7.813 ± 0.059
16,PCYGYQR,-0.024 ± 0.65
17,SVFFGFWDTHAAAYMHGVFM,inactive
18,TLFCIVMYCTKVETNFLVLH,6.45 ± 0.085
19,YYLSNSWVLYFCFGIFVTSQ,1.88 ± 0.094
20,MKPSGFRGILGTELRMKGWT,0.74 ± 0.57
21,VGIRCLRFFNMIVLEG,-0.059 ± 0.55
22,LNVWRLFRRWWEWRRDCEFA,0.435 ± 0.37
23,HLTSS,0.772 ± 0.44
24,NRRNLSVGYSKVHS,0.443 ± 0.3
25,ACNNRMISGIRTTDCYIYRP,-0.261 ± 0.33

row,Substance,amyloid nucleation score
1,INVVRTNIKYTMTFCIEGTN,7.306 ± 0.032
2,VRLFTVGWRSGKNVGNTSDA,-0.263 ± 1.1
3,ISDMS,-0.416 ± 0.28
4,YSQFITGFGNNRHLTLSLAG,0.389 ± 0.5
5,ACQAFTCW,0.967 ± 0.26
6,SLQSYGVYR,-0.359 ± 0.76
7,DTNLFTGGSLSVFYFDDGDK,2.96 ± 0.15
8,ISIAGCFNTKILWMFEQ,6.32 ± 0.087
9,QYSFKVDKTCRSVH,0.147 ± 0.76
10,WLKNKLMLVLFTESLPNRSP,-1.02 ± 0.61
11,SHFSYKECRSAVRMLQYNGA,0.719 ± 0.52
12,SMCWNL,0.17 ± 0.39
13,IFMRNRV,-0.524 ± 0.64
14,DHFYWSNLGG,inactive
15,NYIRYLRVYYIVGDELRPGN,8.026 ± 0.048
16,FNMHI,0.8 ± 0.8
17,ALSSKMMGYDRF,-0.494 ± 0.64
18,DDERYDVPLWSFGVRYYISG,-0.384 ± 0.54
19,VVEICFYW,6.258 ± 0.034
20,VCGQILDYWFVYT,0.264 ± 0.23
21,LSCCYDDHRLQGRCGSGRFH,0.946 ± 0.27
22,GFWITVESNNTYNRFLDISC,2.67 ± 0.089
23,RDYGQFCRSFGHLGLFLGSQ,inactive
24,SRQVTSCVVRRSQCIWSG,1.2 ± 0.27
25,RLEVGGTN,2.86 ± 0.11

row,Substance,amyloid nucleation score
1,DYNSNMSFSRLCTRVTCHSM,inactive
2,MNSFQTRGSVPRRNPKIRAS,0.998 ± 0.74
3,GISAHHALVTLMLMAIVGHY,1.55 ± 0.55
4,SVSCIKFIHSLAEYGMSKEN,0.697 ± 0.16
5,GFSVSARVMIDLPYVEVRFS,0.07 ± 0.74
6,LIGIYLPWSL,-0.735 ± 0.45
7,MTCRMCGADCPLA,0.539 ± 0.66
8,MLRQYCASFALVRCLNVTDR,3.12 ± 0.13
9,ACVNYYNSEATIVVRKGRMG,4.19 ± 0.071
10,PFDTTCLYRYYSNFYPS,1.73 ± 0.19
11,QWTLVL,-0.599 ± 0.55
12,AQNKNWQSFRMFPVVLAMVG,0.178 ± 0.77
13,YDPDFSGYCYFAIILYIIFS,-1.5 ± 0.62
14,LSAGPALHSYLSGNVFSIEL,2.69 ± 0.069
15,RLLLRALYNPEYSRTQC,-1.43 ± 0.64
16,KCLWWFWLQDRKKRVMCLTG,0.771 ± 0.43
17,VMALSIMTMGTSVGFRDNGG,4.38 ± 0.071
18,SEILWKTWNRFKPCFSRQYG,-0.675 ± 0.78
19,FDTRLSNFFPF,-0.636 ± 0.76
20,TPILFVT,-0.746 ± 0.56
21,NVIGENLGGLLNIFDTNVSF,inactive
22,TVSMLLGRRCVRFRVMVRVG,4.79 ± 0.05
23,FNTSTAFESTDVKSKVM,-1.22 ± 1.1
24,WAATITDRYRCL,0.35 ± 0.35
25,VCWLLGSGFWAS,inactive

row,Substance,amyloid nucleation score
1,DFCRQLWTKNKNVLRFICNS,-0.342 ± 1
2,YVVKIREIMVCSLVLDLRQR,2.57 ± 0.069
3,IILRCNKDFEALACIVVSRR,inactive
4,STVGEVYVGLALMDVWGMEW,0.559 ± 0.32
5,FISDVPHERLRLTFIF,-1.41 ± 0.64
6,QWCYSAVYSMLVSKRL,2.68 ± 0.078
7,MVLYKSRNRLSNYHRLAEST,-0.326 ± 1.1
8,SLSERLVILMTWCTFVVSAQ,1.17 ± 0.29
9,LLDSPEWWYVLCATNWVYYM,2.88 ± 0.096
10,GNFWAFISRRQSRGFLDSAL,-0.412 ± 1.1
11,HVHVNLYRTSGDIEHMSVQL,8.391 ± 0.046
12,NDGVWKLFPLYLTPRSTFLL,0.895 ± 0.81
13,GMSERRWSCQLVGAVHDMAA,1.17 ± 0.14
14,GHSGTVSTQRVCPSSSLWYR,0.462 ± 0.4
15,CNGYTKRRYTRYSYKWFAVA,-0.15 ± 0.45
16,NYFLY,7.28 ± 0.086
17,CNSHM,2.9 ± 0.072
18,YFDTYLMTSRGCSIFMAQFR,1.67 ± 0.28
19,DCHRNGSFRGKDGDVLYRSS,-0.397 ± 0.78
20,GLSRVDPWVYQLPSMGSHDS,0.706 ± 0.52
21,IIVCVSGIYLSMSQ,6.007 ± 0.035
22,SPSHGVRNP,1.51 ± 0.34
23,RCNRSCN,inactive
24,VNFFNLINRRGTPNRWFYAS,0.201 ± 1
25,GFHLQMEEVASYFLEIRPFC,0.02 ± 0.79

row,Substance,amyloid nucleation score
1,FRFLDNELQNRGRRMYQLGY,-0.465 ± 1
2,SRSFASPRYELMLATRTHEK,0.966 ± 0.57
3,NRFFAALLFKADLFWSQF,-0.021 ± 0.76
4,SLGRGPYDRNMIVFMMRELT,-0.682 ± 0.64
5,CLFWG,2.85 ± 0.11
6,DIYLLKIDRSGKCWPTTVDL,-0.067 ± 0.41
7,MKMEY,0.31 ± 0.42
8,KRIPSSWWFVGLVGITWRPA,0.826 ± 0.29
9,VLLGPSSYRLTYTMGRRRDG,0.685 ± 0.66
10,YIWRLLLLRGCTVNFMSCNM,5.62 ± 0.067
11,SCQENICENWFWLLHD,-0.321 ± 0.45
12,GTYRNIRVWCRFRWVFENGC,0.11 ± 0.74
13,QRIPWV,-0.509 ± 1.1
14,YCQSIVFCSI,3.84 ± 0.086
15,RMSEYFDGLHRWFSGCWCAL,0.256 ± 0.65
16,FSWFFSNITITMNHCLGVSR,inactive
17,NNYAADGRCNYWGSISLKVR,inactive
18,LSGRCFFNVLLINCKRTERI,2.1 ± 0.19
19,CCSISTDLCDKYFVTFCLLS,inactive
20,VRPCRP,1.49 ± 0.55
21,NRSAYLGRMVSI,0.164 ± 0.44
22,TGTAVG,3.23 ± 0.073

# Source: the supplement of paper PMC12042874
